From patent publication US20230242646A1 (JJP BIOLOGICS SP Z O O, published 2023) come the findings set out here.

Several values for one entry are separate records, joined by “and”; a condition that tells them apart may be missing. Equal values may be shown once.

In experiment [1] the target is T1, recombinant C-terminal polyhistidine-tagged human (extracellular) CD89 (Sino Biological) (human, UniProt P24071 22-227).
T1 construct: extracellular domain; bought protein; also called rhuCD89; soluble monomeric rhuCD89
The experiment in a line: ELISA on plate-coated rhuCD89; titrated supernatant; HRP goat anti-human IgG Fc detection, OD 450 nm [VL3].

The target in experiment [2] is T1, recombinant C-terminal …. The experiment in a line: ELISA on plate-coated rhuCD89; titrated supernatant; HRP goat anti-human IgG Fc detection, OD 450 nm [VL4].
The target of experiment [3] is T2, membrane-bound full-length human CD89 on HEK293F cells (human, UniProt P24071 22-287).
T2 construct: 2 or transient transfectants; also called membrane human CD89; human FcaRI
The experiment in a line: FACS HEK293F-huCD89; inhibition of serum human IgA binding.
Procedure: (§1) After extensive washing in PBS/BSA/NaN₃, 1:200 diluted PE-conjugated streptavidin (Jackson ImmunoResearch) was added, and incubated for 30 minutes at 4° C. After extensive washing in PBS/BSA/NaN₃, cells were fixed in 4% formaldehyde in PBS/BSA/NaN₃ for 30 minutes at 4° C.

The target of experiment [4] is T2, membrane-bound full-length human CD89 …. In words: FACS HEK293F-huCD89; inhibition of secretory human IgA binding.
Procedure: as §1
The target is the same in experiment [5]. The experiment in a line: FACS HEK293F-huCD89, purified Ab.
Procedure: After extensive washing in PBS/BSA/NaN₃, cells were subsequently incubated with 1:200 diluted PE-conjugated goat anti-human IgG Fcγ-specific antibodies (Jackson ImmunoResearch) for 30 minutes at 4° C. After extensive washing in PBS/BSA/NaN₃, cells were fixed in 4% formaldehyde in PBS/BSA/NaN₃ for 30 minutes at 4° C.
The target in experiment [6] is T1, recombinant C-terminal …. The experiment in a line: BLI (Octet RED96), biotinylated Ab on streptavidin tips, rhuCD89 analyte, 1:1 model.
Procedure: Equilibrium dissociation constants (KD) were determined using a 1:1 Langmuir binding model in Octet® RED96 software (ForteBio).
Experiment [7] deals with T1, recombinant C-terminal …. In words: ELISA, coated rhuCD89, purified Ab.
Procedure: After extensive washing with PBS/0.05% Tween 20, plates were blocked with PBS/0.05% Tween 20/1% BSA (Roche) for 1 hour at RT. […] After extensive washing in PBS/0.05% Tween 20, binding of antibodies on rhuCD89 was determined with 1:5,000 diluted horseradish peroxidase (HRP)-conjugated goat anti-human IgG Fcγ-specific antibodies (Jackson ImmunoResearch) for 1 hour at RT, followed by a ready-to-use solution of TMB substrate (Invitrogen) for colorimetric detection. After adding 1 M HCL, binding (optical density) of antibodies on rhuCD89 was measured at wavelength of 450 nm (reference wavelength of 655 nm) using a microplate reader (Synergy HTX; BioTek).
In experiment [8] the target is T1, recombinant C-terminal …. The experiment in a line: ELISA, coated rhuCD89.
The target in experiment [9] is T2, membrane-bound full-length human CD89 …. In words: FACS HEK293F-huCD89.
Procedure: After extensive washing in PBS/BSA/NaN₃, cells were subsequently incubated with 1:200 diluted PE-conjugated goat anti-human IgG Fcy-specific antibodies (Jackson ImmunoResearch) for 30 minutes at 4° C. After extensive washing in PBS/BSA/NaN₃, cells were fixed in 2% formaldehyde in PBS/BSA/NaN₃ for 30 minutes at 4° C.
Experiment [10] has the same target. In words: FACS, antibody before heat-aggregated serum IgA on HEK293F-huCD89; IgA detected.
For experiment [11] the target is unchanged. The experiment in a line: FACS, antibody before non-aggregated serum IgA on HEK293F-huCD89; IgA detected.
Experiment [12] has the same target. The experiment in a line: FACS, antibody before secretory IgA on HEK293F-huCD89; IgA detected.

B1: humanized IgG4/kappa anti-human CD89 monoclonal antibody 10E7 version VH2VL3 (antibody)
heavy: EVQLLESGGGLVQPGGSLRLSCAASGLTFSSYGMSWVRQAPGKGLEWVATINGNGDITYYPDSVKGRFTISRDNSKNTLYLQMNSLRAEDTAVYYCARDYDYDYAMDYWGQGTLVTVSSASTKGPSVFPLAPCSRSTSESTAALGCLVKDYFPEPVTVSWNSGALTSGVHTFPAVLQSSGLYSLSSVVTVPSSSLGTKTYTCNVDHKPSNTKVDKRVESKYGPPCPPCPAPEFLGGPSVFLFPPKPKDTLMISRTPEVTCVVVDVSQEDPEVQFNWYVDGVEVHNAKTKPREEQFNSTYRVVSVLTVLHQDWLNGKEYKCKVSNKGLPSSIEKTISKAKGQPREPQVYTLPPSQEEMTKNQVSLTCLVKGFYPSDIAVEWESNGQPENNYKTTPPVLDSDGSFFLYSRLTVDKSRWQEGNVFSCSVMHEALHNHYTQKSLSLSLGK
light: DIQMTQSPSSLSASVGDRVTITCRASQDIINYLNWYQQKPGKAVKLLIYYTSRLHSGVPSRFSGSGSGTDYTLTISSLQPEDFATYYCQQGKTLPYTFGQGTKLEIKRTVAAPSVFIFPPSDEQLKSGTASVVCLLNNFYPREAKVQWKVDNALQSGNSQESVTEQDSKDSTYSLSSTLTLSKADYEKHKVYACEVTHQGLSSPVTKSFNRGEC
notes: tested as supernatant; signal peptide end derived as for m17
Regarding B1, the “EC50 (read off the curve)” value in [1] was ~0.04 µg/mL.

B2: humanized IgG4/kappa anti-human CD89 monoclonal antibody 10E7 version VH2VL4 (antibody)
heavy: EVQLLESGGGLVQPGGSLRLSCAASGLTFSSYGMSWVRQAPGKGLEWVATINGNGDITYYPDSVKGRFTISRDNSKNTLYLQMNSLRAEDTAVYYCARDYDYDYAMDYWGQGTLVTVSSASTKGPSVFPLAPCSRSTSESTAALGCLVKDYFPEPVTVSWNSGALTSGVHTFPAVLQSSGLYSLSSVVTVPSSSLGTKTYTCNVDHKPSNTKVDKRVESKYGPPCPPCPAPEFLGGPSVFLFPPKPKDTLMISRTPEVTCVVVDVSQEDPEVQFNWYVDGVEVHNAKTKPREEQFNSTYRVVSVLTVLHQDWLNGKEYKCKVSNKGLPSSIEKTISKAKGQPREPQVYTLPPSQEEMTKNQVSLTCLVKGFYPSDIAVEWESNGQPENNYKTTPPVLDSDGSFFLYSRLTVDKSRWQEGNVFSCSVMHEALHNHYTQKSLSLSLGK
light: DIQMTQSPSSLSASVGDRVTITCRASQDIINYLNWYQQKPGKTVKLLIYYTSRLHSGVPSRFSGSGSGTDYTLTISSLQPEDFATYFCQQGKTLPYTFGQGTKLEIKRTVAAPSVFIFPPSDEQLKSGTASVVCLLNNFYPREAKVQWKVDNALQSGNSQESVTEQDSKDSTYSLSSTLTLSKADYEKHKVYACEVTHQGLSSPVTKSFNRGEC
notes: as for B1
Turning to B2, in experiment [2], the “EC50 (read off the curve)” value is ~0.03 µg/mL.

B3: humanized IgG4/kappa anti-human CD89 monoclonal antibody 10E7 version VH1VL4 (antibody)
heavy: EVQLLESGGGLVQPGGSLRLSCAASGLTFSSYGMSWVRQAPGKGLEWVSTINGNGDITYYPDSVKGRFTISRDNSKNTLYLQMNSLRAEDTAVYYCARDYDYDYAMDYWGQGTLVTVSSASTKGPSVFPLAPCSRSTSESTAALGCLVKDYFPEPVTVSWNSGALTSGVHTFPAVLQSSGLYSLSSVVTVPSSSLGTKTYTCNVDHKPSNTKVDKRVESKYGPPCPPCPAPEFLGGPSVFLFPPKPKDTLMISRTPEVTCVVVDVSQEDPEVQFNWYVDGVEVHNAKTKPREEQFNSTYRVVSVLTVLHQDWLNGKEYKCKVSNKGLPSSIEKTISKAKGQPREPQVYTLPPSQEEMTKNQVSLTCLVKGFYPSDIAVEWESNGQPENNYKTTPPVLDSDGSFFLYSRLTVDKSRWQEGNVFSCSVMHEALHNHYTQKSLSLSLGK
light: DIQMTQSPSSLSASVGDRVTITCRASQDIINYLNWYQQKPGKTVKLLIYYTSRLHSGVPSRFSGSGSGTDYTLTISSLQPEDFATYFCQQGKTLPYTFGQGTKLEIKRTVAAPSVFIFPPSDEQLKSGTASVVCLLNNFYPREAKVQWKVDNALQSGNSQESVTEQDSKDSTYSLSSTLTLSKADYEKHKVYACEVTHQGLSSPVTKSFNRGEC
notes: as for B1
Consider B3, for which, in [2], the “EC50 (read off the curve)” value was ~0.03 µg/mL.

B4: 'CDR2 deamidation-repaired' humanized IgG4/kappa anti-human CD89 monoclonal antibody 10E7 version VH3STVL3 (antibody)
heavy: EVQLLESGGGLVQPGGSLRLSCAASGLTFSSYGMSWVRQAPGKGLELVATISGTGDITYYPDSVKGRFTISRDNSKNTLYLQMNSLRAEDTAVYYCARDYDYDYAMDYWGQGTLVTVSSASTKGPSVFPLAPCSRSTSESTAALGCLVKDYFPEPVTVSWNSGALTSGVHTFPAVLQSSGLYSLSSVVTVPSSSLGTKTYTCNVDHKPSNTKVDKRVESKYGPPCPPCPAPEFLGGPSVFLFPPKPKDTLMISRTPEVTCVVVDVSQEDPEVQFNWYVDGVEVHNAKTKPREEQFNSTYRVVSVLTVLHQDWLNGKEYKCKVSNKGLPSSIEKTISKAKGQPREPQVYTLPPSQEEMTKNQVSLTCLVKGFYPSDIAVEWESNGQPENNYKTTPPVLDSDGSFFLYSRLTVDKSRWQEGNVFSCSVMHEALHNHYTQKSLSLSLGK
light: DIQMTQSPSSLSASVGDRVTITCRASQDIINYLNWYQQKPGKAVKLLIYYTSRLHSGVPSRFSGSGSGTDYTLTISSLQPEDFATYYCQQGKTLPYTFGQGTKLEIKRTVAAPSVFIFPPSDEQLKSGTASVVCLLNNFYPREAKVQWKVDNALQSGNSQESVTEQDSKDSTYSLSSTLTLSKADYEKHKVYACEVTHQGLSSPVTKSFNRGEC
notes: Biotinylated in the Octet assay; also called Humanized VH3STVL3
Regarding B4, the IC50 is ~0.9 µg/mL in [3] and ~0.6 µg/mL in experiment [4]. Further, the EC50 in experiment [5] was ~0.6 µg/mL; in [7], ~0.01 µg/mL. The Kd in experiment [6] was found to be 0.92 nM. Also, the koff in experiment [6] is 0.000974 s⁻¹. Besides, the association rate constant (kon) in [6] is 1.06e+06 M⁻¹ s⁻¹.

B5: 'CDR2 deamidation-repaired' humanized IgG4/kappa anti-human CD89 monoclonal antibody 10E7 version VH3SQVL3 (antibody)
heavy: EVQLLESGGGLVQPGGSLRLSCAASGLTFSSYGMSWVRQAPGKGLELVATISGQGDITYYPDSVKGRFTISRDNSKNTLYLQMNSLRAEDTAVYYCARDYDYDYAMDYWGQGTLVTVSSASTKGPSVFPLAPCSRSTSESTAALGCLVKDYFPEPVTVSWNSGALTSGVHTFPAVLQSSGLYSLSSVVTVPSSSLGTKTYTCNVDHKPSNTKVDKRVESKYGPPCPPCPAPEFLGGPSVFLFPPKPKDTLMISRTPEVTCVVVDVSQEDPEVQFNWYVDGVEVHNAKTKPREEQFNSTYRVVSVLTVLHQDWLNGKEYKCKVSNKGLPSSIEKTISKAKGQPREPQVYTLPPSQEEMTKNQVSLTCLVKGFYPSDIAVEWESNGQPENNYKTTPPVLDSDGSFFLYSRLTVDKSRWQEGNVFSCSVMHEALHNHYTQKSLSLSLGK
light: DIQMTQSPSSLSASVGDRVTITCRASQDIINYLNWYQQKPGKAVKLLIYYTSRLHSGVPSRFSGSGSGTDYTLTISSLQPEDFATYYCQQGKTLPYTFGQGTKLEIKRTVAAPSVFIFPPSDEQLKSGTASVVCLLNNFYPREAKVQWKVDNALQSGNSQESVTEQDSKDSTYSLSSTLTLSKADYEKHKVYACEVTHQGLSSPVTKSFNRGEC
notes: Biotinylated in the Octet assay; also called Humanized VH3SQVL3
As to B5, the IC50 in experiment [3] is ~0.9 µg/mL. Further, the IC50 in experiment [4] was ~0.6 µg/mL. In addition, in [5], the EC50 was ~0.6 µg/mL. Besides, in [6], the Kd turned out to be 0.82 nM, the koff worked out at 0.000941 s⁻¹ and the kon was 1.15e+06 M⁻¹ s⁻¹. Moreover, the EC50 in [7] is ~0.01 µg/mL.

B6: humanized IgG4/kappa anti-human CD89 monoclonal antibody 10E7 version VH1VL3 (antibody)
heavy: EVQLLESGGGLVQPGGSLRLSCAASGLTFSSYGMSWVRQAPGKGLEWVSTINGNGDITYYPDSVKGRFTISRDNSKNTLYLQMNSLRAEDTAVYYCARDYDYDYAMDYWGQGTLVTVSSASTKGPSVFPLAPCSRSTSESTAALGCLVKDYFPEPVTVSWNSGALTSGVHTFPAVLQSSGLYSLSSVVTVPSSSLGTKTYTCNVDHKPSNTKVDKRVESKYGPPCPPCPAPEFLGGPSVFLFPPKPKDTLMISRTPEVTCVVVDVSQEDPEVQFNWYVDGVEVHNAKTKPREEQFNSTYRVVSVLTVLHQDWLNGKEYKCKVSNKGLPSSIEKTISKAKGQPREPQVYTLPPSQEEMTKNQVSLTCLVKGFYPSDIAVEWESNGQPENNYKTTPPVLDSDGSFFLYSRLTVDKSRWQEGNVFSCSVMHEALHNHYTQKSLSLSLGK
light: DIQMTQSPSSLSASVGDRVTITCRASQDIINYLNWYQQKPGKAVKLLIYYTSRLHSGVPSRFSGSGSGTDYTLTISSLQPEDFATYYCQQGKTLPYTFGQGTKLEIKRTVAAPSVFIFPPSDEQLKSGTASVVCLLNNFYPREAKVQWKVDNALQSGNSQESVTEQDSKDSTYSLSSTLTLSKADYEKHKVYACEVTHQGLSSPVTKSFNRGEC
notes: as for B1
Turning to B6, the “EC50 (read off the curve)” value in experiment [1] is ~0.03 µg/mL.

B7: CD89/IgA blocking chimeric mouse/human IgG4/kappa anti-human CD89 antibody 10E7 (antibody)
heavy: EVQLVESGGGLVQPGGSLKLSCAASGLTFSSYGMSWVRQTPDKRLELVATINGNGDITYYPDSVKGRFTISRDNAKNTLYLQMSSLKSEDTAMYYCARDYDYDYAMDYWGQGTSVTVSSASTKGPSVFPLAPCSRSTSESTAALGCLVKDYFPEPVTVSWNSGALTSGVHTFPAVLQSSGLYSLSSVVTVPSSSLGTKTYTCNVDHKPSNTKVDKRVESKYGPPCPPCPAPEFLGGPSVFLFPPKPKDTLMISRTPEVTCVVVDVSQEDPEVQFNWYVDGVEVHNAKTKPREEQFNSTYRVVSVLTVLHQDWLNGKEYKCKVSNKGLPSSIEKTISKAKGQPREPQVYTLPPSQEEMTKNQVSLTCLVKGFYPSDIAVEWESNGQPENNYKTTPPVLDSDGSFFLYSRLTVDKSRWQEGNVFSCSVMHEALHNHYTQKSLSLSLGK
light: DIQMTQSTSSLSASLGDSVTISCRASQDIINYLNWYQQKPDGTVKLLIYYTSRLHSGVPSRFSGSGSGTEYSLTVSNLEKEDIATYFCQQGKTLPYTFGGGTKLEIKRTVAAPSVFIFPPSDEQLKSGTASVVCLLNNFYPREAKVQWKVDNALQSGNSQESVTEQDSKDSTYSLSSTLTLSKADYEKHKVYACEVTHQGLSSPVTKSFNRGEC
notes: stabilized (S239P) human IgG4; biotinylated in the Octet assay; also called chimeric 10E7; chimer IgG4/k 10E7
B7: the IC50 in [3] is ~1.6 µg/mL; in experiment [4], ~1 µg/mL. Besides, the EC50 was ~1.3 µg/mL in experiment [5]; 0.016 µg/mL and ~0.02 µg/mL in experiment [8]; 1.25 µg/mL and ~1 µg/mL in experiment [9]; ~0.01 µg/mL in experiment [7]. In addition, the Kd in experiment [6] stood at 1.28 nM. For the same molecule, the koff in experiment [6] was 0.00106 s⁻¹. In [6], the kon worked out at 832000 M⁻¹ s⁻¹.

B8: CD89/IgA blocking chimeric mouse/human IgG4/kappa anti-human CD89 antibody 20B4 (antibody)
heavy: not shown
light: DILMTQSPSSMSVSLGDTVSITCHASQDISRNIGWLQQKPGKSFKGLIYHGTNLEDGVPSRFSGSGSGADYSLTISSLESEDFADYYCVQYAQFPRTFGGGTKLEIKRTVAAPSVFIFPPSDEQLKSGTASVVCLLNNFYPREAKVQWKVDNALQSGNSQESVTEQDSKDSTYSLSSTLTLSKADYEKHKVYACEVTHQGLSSPVTKSFNRGEC
notes: stabilized (S239P) human IgG4; also called chimeric 20B4
With B8, the EC50 in experiment [8] is 0.009 µg/mL; in [9], 0.296 µg/mL.

B9: CD89/IgA blocking chimeric mouse/human IgG4/kappa anti-human CD89 antibody 30C7 (antibody)
heavy: not shown
light: DIVMSQSPSSLAVSAGEKVTMSCKSSQSLLNSRTRKNYLAWYQQKPGQSPKLLIYWASTRESGVPDRFTGSGSGTDFTLTISSVQAEDLAVYYCKQSYNLMYTFGGGTKLEIKRTVAAPSVFIFPPSDEQLKSGTASVVCLLNNFYPREAKVQWKVDNALQSGNSQESVTEQDSKDSTYSLSSTLTLSKADYEKHKVYACEVTHQGLSSPVTKSFNRGEC
notes: stabilized (S239P) human IgG4; also called chimeric 30C7
In the case of B9, the “IC50 (read off the curve)” value is ~0.8 µg/mL in [10], ~0.9 µg/mL in experiment [11] and ~1 µg/mL in experiment [12].

B10: CD89/IgA blocking chimeric mouse/human IgG4/kappa anti-human CD89 antibody 8F3 (antibody)
heavy: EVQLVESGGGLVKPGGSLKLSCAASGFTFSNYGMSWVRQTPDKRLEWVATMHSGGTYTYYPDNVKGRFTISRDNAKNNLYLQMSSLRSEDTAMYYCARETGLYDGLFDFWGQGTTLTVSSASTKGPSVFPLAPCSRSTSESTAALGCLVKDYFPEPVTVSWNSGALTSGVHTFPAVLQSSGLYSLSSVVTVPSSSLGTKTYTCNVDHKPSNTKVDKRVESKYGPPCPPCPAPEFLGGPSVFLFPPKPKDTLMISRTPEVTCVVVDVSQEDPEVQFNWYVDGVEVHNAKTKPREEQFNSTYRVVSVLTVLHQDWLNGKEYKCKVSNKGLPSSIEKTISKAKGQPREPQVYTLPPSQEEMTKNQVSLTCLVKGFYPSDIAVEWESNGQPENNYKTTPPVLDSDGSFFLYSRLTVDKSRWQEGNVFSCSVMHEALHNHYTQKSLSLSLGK
light: DVQITQSPSYLAASPGETITINCRASKTISKYLAWYQEKPGKTNMLLIYSGSTLQSGVPSRFSGSGSGTDFTLTISSLEPEDLAMYYCQQHDEYPWTFGGGTKLEIKRTVAAPSVFIFPPSDEQLKSGTASVVCLLNNFYPREAKVQWKVDNALQSGNSQESVTEQDSKDSTYSLSSTLTLSKADYEKHKVYACEVTHQGLSSPVTKSFNRGEC
notes: stabilized (S239P) human IgG4; also called chimeric 8F3
As to B10, the “IC50 (read off the curve)” value in [10], in experiment [11] and in experiment [12] was ~1 µg/mL throughout. For the same molecule, the 50% effective concentration (EC50) in experiment [8] came out at 0.031 µg/mL; in experiment [9], 1.32 µg/mL.

B11: CD89/IgA blocking chimeric mouse/human IgG4/kappa anti-human CD89 antibody 16D6 (antibody)
heavy: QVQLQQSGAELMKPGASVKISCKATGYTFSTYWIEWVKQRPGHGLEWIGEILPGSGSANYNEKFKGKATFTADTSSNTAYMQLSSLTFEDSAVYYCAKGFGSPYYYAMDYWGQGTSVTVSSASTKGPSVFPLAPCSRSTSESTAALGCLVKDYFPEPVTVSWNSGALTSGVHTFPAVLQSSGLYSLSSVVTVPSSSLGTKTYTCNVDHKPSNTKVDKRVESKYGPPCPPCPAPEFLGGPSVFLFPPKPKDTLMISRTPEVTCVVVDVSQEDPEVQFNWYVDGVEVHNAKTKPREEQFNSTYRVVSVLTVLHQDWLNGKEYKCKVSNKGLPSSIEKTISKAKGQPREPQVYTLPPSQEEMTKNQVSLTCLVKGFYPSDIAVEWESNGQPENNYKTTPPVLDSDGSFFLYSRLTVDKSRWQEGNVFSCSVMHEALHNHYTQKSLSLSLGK
light: EIVLTQSPALMAASPGEKVTITCSVSSSISSSNLHWYQQKSETSPKPWIYGTSKLASGVPVRFSGSGSGTSYSLTISNMEAEDAATYYCQQWSSFPLTFGGGTKLEIKRTVAAPSVFIFPPSDEQLKSGTASVVCLLNNFYPREAKVQWKVDNALQSGNSQESVTEQDSKDSTYSLSSTLTLSKADYEKHKVYACEVTHQGLSSPVTKSFNRGEC
notes: stabilized (S239P) human IgG4; also called chimeric 16D6
B11: the EC50 is 0.108 µg/mL in experiment [8] and 1.79 µg/mL in [9].
